Laboratory results as given in US20030190641A1, “Live cell method for observing cellular processes” (CEDARS-SINAI MEDICAL CENTER, priority 2002, published 2003).

Columns and labels:
H1299 cells [1] = test: Single, live cell imaging: destiny of mitosis (PTTG degradation, chromosome segregation, cytokinesis, aneuploidy); type: cell-based, human
Experimental: (§1) Human H1299 cells were grown in Dulbeccos's Modified Eagle Medium (DMEM) with 10% Fetal Bovine Serum (FBS) and transfected with Lipofectamine 2000 (obtained from Invitrogen Corporation; Carlsbad, Calif.; hereinafter “Invitrogen”). PTTG-EGFP and p55CDC-EGFP were constructed by cloning PTTG or p55CDC (obtained from Amgen, Inc.; Thousand Oaks, Calif.) into pEGFP-N3 (obtained from BD Biosciences Clontech; Palo Alto, Calif.; hereinafter “Clontech”). Non-degradable mutant PTTG-EGFP was obtained from Dr. Chris McCabe (University of Birmingham, England, UK). EGFP was at the C-terminus of PTTG or p55CDC. Cells were studied (microscopy or by Western blot) 18 to 24 hours after transfection.
(§2) Observation of individual live cells over 48 hours or longer was performed by incubating cells in an FCS2 Closed Perfusion System (obtained from Bioptechs; Butler, Pa.). Cells were perfused with CO2-independent L15 medium (obtained from Invitrogen) supplemented with 10% FBS and penicillin/streptomycin and saturated with ambient air. Perfusion chamber temperature was set to 37° C., and cells were grown in the perfusion system for up to a week until confluency.
(§3) The perfusion chamber was placed on an inverted fluorescence microscope (obtained from Nikon Corporation; Melville, N.Y.) and observed with a 40× extra-long working distance objective lens. Cells were observed from every few seconds to every several hours depending on the speed of cell changes. Durations of mitosis phases were determined by counting the minutes between two sequential mitotic milestones. Phase-contrast and EGFP fluorescent images were taken simultaneously at frequencies ranging from every minute (e.g., during metaphase to anaphase transition) to every few hours (e.g., after telophase), with a CCD digital camera.
(§4) Relative fluorescence intensity was objectively determined with the application of two neutral density filters (NDFs). Each NDF reduces incident light by 50%. High fluorescence was defined when a cell was clearly visualized after application of two NDFs. Medium fluorescence was defined as a cell clearly visualized after application of one but not two NDFs. Low fluorescence was defined as a cell only visualized when neither NDF was applied.
As failure of PTTG degradation is associated with chromosome non-segregation, an EGFP-tagged non-degradable mutant PTTG (DM-PTTG-EGFP) was expressed in H1299 cells and chromosome segregation and cytokinesis of individual live cells observed (FIG. 6; FIG. 5A). Similar to the wild-type PTTG, DM-PTTG localizes to mitotic spindles (FIGS. 5B-5G) and chromosomes (data not shown). […] Most (51/55) cells underwent asymmetrical cytokinesis, while some cells decondensed chromosomes; macronuclei ensued in both cases. During asymmetrical cytokinesis, chromosomes and mitotic spindles were closely attached and moved to one cell pole (FIGS. 5B-5G). The cytokinesis furrow occurred roughly at the position of the distal centrosome (FIGS. 5C and 5D). Both centrosomes were retained in the daughter cell containing chromosomes (FIGS. 5E and 5F).

H1299 cells [2] = test: Single, live cell imaging: duration of mitosis phases of cells expressing PTTG-EGFP; type: cell-based, human; conditions: 18 hours after transfection
Experimental: as §1, §2, §3, §4
As depicted in Table 1, prophase (Pro), metaphase (Meta), anaphase (Ana), and telophase (Telo) durations were recorded (in minutes) in untransfected control cells (Control), cells expressing EGFP only (EGFP), and in cells expressing PTTG-EGFP (PTTG-EGFP) 18 hours after transfection. […] For some cells expressing PTTG-EGFP, no distinct anaphase or telophase was seen because of abnormal chromosome segregation and cytokinesis.

[3] = High expression level (fluorescence)
[4] = Low expression level (fluorescence)
[5] = Medium expression level (fluorescence)

B1: PTTG-EGFP: EGFP-tagged PTTG (pituitary tumor transforming gene product), EGFP at the C-terminus, expressed in H1299 cells by transfection (protein, UniProt O95997 2-202, looked up)
Securin: ATLIYVDKENGEPGTRVVAKDGLKLGSGPSIKALDGRSQVSTPRFGKTFDAPPALPKATRKALGTVNRATEKSVKTKGPLKQKQPSFSAKKMTEKTVKAKSSVPASDDAYPEIEKFFPFNPLDFESFDLPEEHQIAHLPLSGVPLMILDEERELEKLFQLGPPSPVKMPSPPWESNLLQSPSSILSTLDVELPPVCCDIDI
modifications: C-terminal EGFP tag
notes: EGFP-tagged PTTG (pituitary tumor transforming gene product), EGFP at the C-terminus, expressed in H1299 cells by transfection
Cells with anaphase bridge (H1299 cells [1]; 65 cells expressing PTTG-EGFP observed): 2/65 | Time of degradation prior to the onset of anaphase (H1299 cells [1]; cells that underwent apparently normal mitosis): about 1 minute | Aneuploidy of daughter cells (H1299 cells [1]; parent cells expressing high levels): All daughter cells | Aneuploidy rate of daughter cells (H1299 cells [1]; parent cells expressing low levels): 18% | Aneuploidy rate of daughter cells (H1299 cells [1]; parent cells expressing medium levels): 63% | Duration of metaphase (Meta) (H1299 cells [2]; [3]): 112 ± 31 min | Duration of prophase (Pro) (H1299 cells [2]; [3]): 59 ± 7 min | Duration of anaphase (Ana) (H1299 cells [2]; [4]): 4 ± 0 min | Duration of metaphase (Meta) (H1299 cells [2]; [4]): 26 ± 4 min | Duration of prophase (Pro) (H1299 cells [2]; [4]): 25 ± 3 min | Duration of telophase (Telo) (H1299 cells [2]; [4]): 5 ± 0 min | Duration of anaphase (Ana) (H1299 cells [2]; [5]): 4 ± 0 min | Duration of metaphase (Meta) (H1299 cells [2]; [5]): 49 ± 16 min | Duration of prophase (Pro) (H1299 cells [2]; [5]): 35 ± 12 min | Duration of telophase (Telo) (H1299 cells [2]; [5]): 5 ± 0 min
